The text below walks through data of article PMC9805502.

The term stoichiometry N denotes a count of units in the complex or per binding partner.

For this assay, the target named is HilD^Q39E,N44D,H95L mutant (recombinant) (Salmonella enterica serovar Typhimurium strain 14028s). The assay can be described thus: mass photometry.

Regarding “HilD^Q39E,N44D,H95L mutant (recombinant) (natural protein)”, the stoichiometry N was determined as 2.
